Measurements published in article PMC10901769, “An anti-CRISPR that represses its own transcription while blocking Cas9-target DNA binding”.
Positions count from the first letter of the chain named.

Columns and labels:
[1] = target: N-terminal domain of AcrIIA15 (AcrIIA15^NTD) (Staphylococcus (identified from Staphylococcus genomes)); assay: crystal structure; AcrIIA15 (full-length or NTD) with IR1 promoter DNA, mixed at 2:1.1 in 20 mM Tris pH 7.5, 100 mM NaCl; 3.15 Å and 3.10 Å
[2] = target: full-length AcrIIA15 R2A mutant (Staphylococcus (identified from Staphylococcus genomes)); assay: SEC; dimerization state of wild-type or mutated AcrIIA15; Superdex 75, 20 mM Tris-HCl pH 7.5, 0.5 M NaCl
[3] = target: full-length AcrIIA15 (Staphylococcus (identified from Staphylococcus genomes)); assay: cryo-EM structure; SaCas9-sgRNA-AcrIIA15-IR1 quaternary complex, mixed at 1:1.1:0.9:0.6, purified by SEC in 20 mM Tris pH 7.5, 0.1 M NaCl; 3.82 Å
[4] = target: full-length AcrIIA15 (Staphylococcus (identified from Staphylococcus genomes)); assay: SEC; dimerization state of wild-type or mutated AcrIIA15; Superdex 75, 20 mM Tris-HCl pH 7.5, 0.5 M NaCl
[5] = target: full-length AcrIIA15 (Staphylococcus (identified from Staphylococcus genomes)); assay: crystal structure; AcrIIA15 (full-length or NTD) with IR1 promoter DNA, mixed at 2:1.1 in 20 mM Tris pH 7.5, 100 mM NaCl; 3.15 Å and 3.10 Å
[6] = target: full-length AcrIIA15 (Staphylococcus (identified from Staphylococcus genomes)); assay: crystal structure; free full-length AcrIIA15; 2.34 Å
[7] = target: T1, AcrIIA15 full-length (UniProt PDB:8JG9_3 1-171); assay: SPR; Promoter EMSA: 20 mM Tris-HCl pH 7.5, 300 mM NaCl, on ice/4 C, 30 min; SaCas9 EMSA: 20 mM Tris pH 7.5, 200 mM NaCl, 10 mM EDTA, RT; SPR: 10 mM Na2HPO4, 2 mM KH2PO4, 0.3 M NaCl; SEC: 20 mM Tris pH 7.5, 300 mM NaCl; conditions: protein: recombinant; tags: C-terminal His6, or His6-Sumo removed by Ulp1; chain copies: 2; blunt
T1 sequence: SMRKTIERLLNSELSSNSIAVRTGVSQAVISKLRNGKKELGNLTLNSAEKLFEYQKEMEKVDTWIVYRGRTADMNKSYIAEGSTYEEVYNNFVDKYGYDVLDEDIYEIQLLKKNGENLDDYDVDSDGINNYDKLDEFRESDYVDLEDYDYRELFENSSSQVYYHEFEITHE

[8] = target: T2, SaCas9;AcrIIA15 full-length (Staphylococcus aureus;, UniProt J7RUA5;PDB:8JG9_3 1-1053;1-171, |); assay: cryo-EM; with sgRNA; AcrIIA15 dimer, two SaCas9-sgRNA; Promoter EMSA: 20 mM Tris-HCl pH 7.5, 300 mM NaCl, on ice/4 C, 30 min; SaCas9 EMSA: 20 mM Tris pH 7.5, 200 mM NaCl, 10 mM EDTA, RT; SPR: 10 mM Na2HPO4, 2 mM KH2PO4, 0.3 M NaCl; SEC: 20 mM Tris pH 7.5, 300 mM NaCl; conditions: protein: recombinant;recombinant; tags: His6-Sumo removed by Ulp1;C-terminal His6, or His6-Sumo removed by Ulp1; chain copies: 2;2; blunt
T2 sequence 1: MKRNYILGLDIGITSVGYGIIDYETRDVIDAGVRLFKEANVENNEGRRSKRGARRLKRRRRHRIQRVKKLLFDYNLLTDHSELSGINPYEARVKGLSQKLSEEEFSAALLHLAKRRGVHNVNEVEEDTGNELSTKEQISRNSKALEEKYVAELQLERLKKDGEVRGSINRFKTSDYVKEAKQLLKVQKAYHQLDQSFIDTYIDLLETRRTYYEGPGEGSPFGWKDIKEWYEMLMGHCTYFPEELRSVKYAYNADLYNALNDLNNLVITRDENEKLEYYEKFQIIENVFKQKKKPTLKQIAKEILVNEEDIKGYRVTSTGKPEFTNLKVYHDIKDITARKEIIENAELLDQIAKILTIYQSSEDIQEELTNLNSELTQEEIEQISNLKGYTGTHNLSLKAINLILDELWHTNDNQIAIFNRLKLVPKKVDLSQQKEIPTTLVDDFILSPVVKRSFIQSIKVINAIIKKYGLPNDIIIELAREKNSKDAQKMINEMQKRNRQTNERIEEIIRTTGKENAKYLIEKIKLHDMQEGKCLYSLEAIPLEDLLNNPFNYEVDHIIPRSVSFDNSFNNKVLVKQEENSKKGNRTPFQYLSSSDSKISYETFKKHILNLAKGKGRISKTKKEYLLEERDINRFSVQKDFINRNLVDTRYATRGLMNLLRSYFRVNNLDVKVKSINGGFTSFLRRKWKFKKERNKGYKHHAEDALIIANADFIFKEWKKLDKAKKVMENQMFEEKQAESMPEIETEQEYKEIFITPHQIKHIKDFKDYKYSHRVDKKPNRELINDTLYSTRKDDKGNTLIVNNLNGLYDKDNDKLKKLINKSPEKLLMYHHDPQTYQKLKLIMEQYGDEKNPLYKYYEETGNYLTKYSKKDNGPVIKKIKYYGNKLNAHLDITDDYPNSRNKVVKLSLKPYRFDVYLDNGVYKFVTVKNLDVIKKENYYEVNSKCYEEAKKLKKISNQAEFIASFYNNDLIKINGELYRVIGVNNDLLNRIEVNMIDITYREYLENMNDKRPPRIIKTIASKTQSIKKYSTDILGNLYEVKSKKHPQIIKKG
T2 sequence 2: T1 sequence

[9] = target: T1, AcrIIA15 full-length; assay: crystal structure; Promoter EMSA: 20 mM Tris-HCl pH 7.5, 300 mM NaCl, on ice/4 C, 30 min; SaCas9 EMSA: 20 mM Tris pH 7.5, 200 mM NaCl, 10 mM EDTA, RT; SPR: 10 mM Na2HPO4, 2 mM KH2PO4, 0.3 M NaCl; SEC: 20 mM Tris pH 7.5, 300 mM NaCl; conditions: protein: recombinant; tags: C-terminal His6, or His6-Sumo removed by Ulp1; chain copies: 2; 5' overhang 1 nt on both strands
[10] = target: T3, AcrIIA15 NTD (UniProt PDB:8JFR_1 1-63); assay: as above; conditions: protein: recombinant; tags: C-His6 or His6-Sumo (removed); chain copies: 2; 5' overhang 1 nt on both strands
T3 sequence: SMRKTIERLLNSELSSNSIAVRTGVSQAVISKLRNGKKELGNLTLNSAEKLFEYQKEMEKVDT

[11] = target: T1, AcrIIA15 full-length; assay: EMSA; Promoter EMSA: 20 mM Tris-HCl pH 7.5, 300 mM NaCl, on ice/4 C, 30 min; SaCas9 EMSA: 20 mM Tris pH 7.5, 200 mM NaCl, 10 mM EDTA, RT; SPR: 10 mM Na2HPO4, 2 mM KH2PO4, 0.3 M NaCl; SEC: 20 mM Tris pH 7.5, 300 mM NaCl; conditions: protein: recombinant; tags: C-terminal His6, or His6-Sumo removed by Ulp1; chain copies: 2; blunt
[12] = target: T4, AcrIIA15 R2A/L44A (UniProt PDB:8JG9_3 1-171, R3A;L45A); assay: as above; conditions: protein: recombinant; tags: C-terminal His6; label: 5'-Cy3 on strand 1; blunt
T4 sequence: T1 sequence with R3A, L45A

[13] = target: T5, AcrIIA15 K31A (UniProt PDB:8JG9_3 1-171, K32A); assay: as above; conditions: protein: recombinant; tags: C-terminal His6; chain copies: 2; label: 5'-Cy3 on strand 1; blunt
T5 sequence: T1 sequence with K32A

[14] = target: T6, AcrIIA15 K37A (UniProt PDB:8JG9_3 1-171, K38A); assay: as above; conditions: protein: recombinant; tags: C-terminal His6; chain copies: 2; label: 5'-Cy3 on strand 1; blunt
T6 sequence: T1 sequence with K38A

[15] = target: T7, AcrIIA15 L44A (UniProt PDB:8JG9_3 1-171, L45A); assay: as above; conditions: protein: recombinant; tags: C-terminal His6; label: 5'-Cy3 on strand 1; blunt
T7 sequence: T1 sequence with L45A

Molecule: N-terminal domain of AcrIIA15 (AcrIIA15^NTD) (domain or fragment)
- stoichiometry N [1]: 2

Molecule: full-length AcrIIA15 R2A mutant (natural protein)
- stoichiometry N [2]: 2

Molecule: full-length AcrIIA15 (natural protein)
- stoichiometry N [3]: 2
- stoichiometry N [4]: 2
- stoichiometry N [5]: 2
- stoichiometry N [6]: 2

B1: IR1 (dsDNA)
DNA 1: ATAATTATGACAAATGTCATAGAAAA
DNA 2: TTTTCTATGACATTTGTCATAATTAT
- Kd [7]: 7.49 ± 0.6 nM
- binding result [8]: binds

B2: IR2 (dsDNA)
DNA 1: TGACTTATGACGAACGTCATAATATA
DNA 2: TATATTATGACGTTCGTCATAAGTCA
- Kd [7]: 1.8 ± 0.66 nM

B3: IR1'' (dsDNA)
DNA 1: ATTATGACAAATGTCATAG
DNA 2: TCTATGACATTTGTCATAA
- binding result [9]: binds
- binding result [10]: binds

B4: IR1 mutant in four base pairs (dsDNA)
DNA 1: ATAATTGTTACAAATGTAACAGAAAA
DNA 2: TTTTCTGTTACATTTGTAACAATTAT
- binding result [11]: no binding

B5: Cy3-IR1 (dsDNA)
DNA 1: ATAATTATGACAAATGTCATAGAAAA
DNA 2: TTTTCTATGACATTTGTCATAATTAT
- binding result [12]: no binding
- binding result [13]: no binding
- binding result [14]: no binding
- binding result [15]: no binding
